Reference: patent US20040224408A1, “THAP proteins as nuclear receptors for chemokines and roles in transcriptional regulation, cell proliferation and cell differentiation” (published 2004)

What was measured:
THAP1 THAP domain = biological target: T1, THAP1 THAP domain (Homo sapiens, UniProt Q9NVV9 SEQ:1-90); assay: EMSA; 20 mM Tris-HCl pH 7.5, 100 mM KCl, poly(dI-dC), room temperature; abrogated by 1,10-phenanthroline, restored by Zn; self-competed by 50-250x unlabelled probe; details: tags: C-terminal His6 (pET-21c); label: 32P
T1 sequence: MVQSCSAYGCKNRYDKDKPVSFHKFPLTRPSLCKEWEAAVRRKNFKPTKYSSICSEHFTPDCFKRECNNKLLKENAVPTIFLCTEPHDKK
Description: Binding reactions were carried out for 10 minutes at room temperature in 20 μl binding buffer (20 mM Tris-HCl pH 7.5, 100 mM KCl, 0.1% NP-40, 100 μg/ml BSA, 2.5 mM DTT, 5% glycerol, 200 ng poly (dI-dC)). Electrophoresis was performed on 8% (29:1) polyacrylamide gels containing 5% glycerol. Gels were run in 0.25×TBE at 150V and 4° C., dried and exposed on a phosphoimager screen (Molecular Dynamics). Sequences of wild type and mutant THRE oligonucleotides used in EMSA experiments were as follow (mutations are indicated in bold): wild-type probe 3, 5′-[…]-3′ (SEQ ID NO: 313); mutant probe 3mut1, 5′-[…]-3′ (SEQ ID NO: 314); mutant probe 3mut3, 5′-[…]-3′ (SEQ ID NO: 319); mutant probe 3mut4, 5′-[…]-3′ (SEQ ID NO: 320); mutant probe 3mut14, 5′-[…]-3′ (SEQ ID NO: 321); mutant probe 3mut5, 5′-[…]-3′ (SEQ ID NO: 322).
For competition experiments, 50-, 150-, and 250-fold molar excess of unlabelled wild-type (THRE competitor, probe 3) or mutant (non-specific competitor, probe 3mut1) THRE oligonucleotides were added to the reaction mixture just before the addition of the probe.
Since the THAP domain is characterized by a C2-CH conserved motif that may function as a Zn-binding site, we then determined whether DNA-binding activity of the THAP domain is Zn-dependent. […]

[1] = biological target: T2, THAP1ΔQRCRR mutant (deletion of residues 168-172) (human, UniProt Q9NVV9 1-213); assay: yeast two-hybrid
T2 construct: Tested as a Gal4-BD fusion (pGBKT7), as in vitro translated protein and as an EGFP fusion; also called THAP1?QRCRR; THAP1?(QRCRR)
T2 sequence: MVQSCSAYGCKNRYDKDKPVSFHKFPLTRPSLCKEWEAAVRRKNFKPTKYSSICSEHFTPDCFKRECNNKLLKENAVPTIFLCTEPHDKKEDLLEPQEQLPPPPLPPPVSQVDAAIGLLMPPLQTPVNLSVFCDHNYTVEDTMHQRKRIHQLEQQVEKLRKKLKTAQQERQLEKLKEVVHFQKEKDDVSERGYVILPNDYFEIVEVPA
Description: (§1) Two-hybrid interaction between THAP1 mutants and Par4DD was tested by cotransformation of AH109 with pGBKT7-THAP1-C1, -C2, -C3, -N1, -N2 or -N3 and pGADT7-Par4DD and selection of transformants by His and Ade double auxotrophy according to manufacturer's instructions ([…] two-hybrid system 3, Clontech).
for mutant THAP1ΔQRCRR. The resulting PCR fragments were digested with EcoRI and BamHI, and cloned in frame downstream of the Gal4 Binding Domain (Gal4-BD) in pGBKT7 two-hybrid vector (Clontech) to generate pGBKT7-THAP1-RR/AA and −Δ(QRCRR), or downstream of the Enhanced Green Fluorescent Protein (EGFP) ORF in pEGFP.C2 vector (Clontech) to generate pEGFP.C2-THAP1-RR/AA and −Δ(QRCRR). THAP1 RR/AA and THAP1ΔQRCRR THAP1 mutants were then tested in the three THAP1/Par4 interaction assays (two-hybrid assay, in vitro THAP1/Par4 interaction assay, in vivo THAP1/Par4 interaction assay) as described above for the THAP1-C1, -C2, -C3, -N1, -N2 or -N3 mutants.

[2] = biological target: T3, THAP1-N1 deletion mutant (amino acids 1-90) (human, UniProt Q9NVV9 1-90); assay: yeast two-hybrid, pGBKT7-THAP1 mutant with pGADT7-Par4DD
T3 construct: Tested as a Gal4-BD or Gal4-AD fusion, as in vitro translated 35S-labelled protein and as an EGFP fusion
T3 sequence: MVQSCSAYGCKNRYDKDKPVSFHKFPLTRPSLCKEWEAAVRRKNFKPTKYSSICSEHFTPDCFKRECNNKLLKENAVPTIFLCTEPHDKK
Description: as §1

[3] = biological target: T4, THAP1-N3 deletion mutant (amino acids 1-192) (human, UniProt Q9NVV9 1-192); assay: as above
T4 construct: Tested as a Gal4-BD or Gal4-AD fusion, as in vitro translated 35S-labelled protein and as an EGFP fusion
T4 sequence: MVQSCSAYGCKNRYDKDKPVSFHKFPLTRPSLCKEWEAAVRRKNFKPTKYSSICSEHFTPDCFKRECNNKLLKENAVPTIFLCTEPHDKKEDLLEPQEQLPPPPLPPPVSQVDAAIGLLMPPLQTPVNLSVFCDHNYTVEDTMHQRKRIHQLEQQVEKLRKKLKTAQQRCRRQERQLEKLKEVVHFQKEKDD
Description: as §1

[4] = biological target: T5, THAP1-C1 deletion mutant (amino acids 90-213) (human, UniProt Q9NVV9 90-213); assay: as above
T5 construct: Tested as a Gal4-BD or Gal4-AD fusion, as in vitro translated 35S-labelled protein and as an EGFP fusion; also called THAP1ΔTHAP; THAP1?THAP
T5 sequence: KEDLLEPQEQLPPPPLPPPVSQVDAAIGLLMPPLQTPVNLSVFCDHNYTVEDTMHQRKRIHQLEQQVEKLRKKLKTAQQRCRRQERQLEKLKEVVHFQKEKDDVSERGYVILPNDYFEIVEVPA
Description: as §1

[5] = biological target: T6, THAP1-C2 deletion mutant (amino acids 120-213) (human, UniProt Q9NVV9 120-213); assay: as above
T6 construct: Tested as a Gal4-BD or Gal4-AD fusion, as in vitro translated 35S-labelled protein and as an EGFP fusion
T6 sequence: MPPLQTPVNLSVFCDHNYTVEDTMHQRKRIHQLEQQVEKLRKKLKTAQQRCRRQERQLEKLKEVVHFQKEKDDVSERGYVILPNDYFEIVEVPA
Description: as §1

[6] = biological target: T7, THAP1-N2 deletion mutant (amino acids 1-166) (human, UniProt Q9NVV9 1-166); assay: as above
T7 construct: Tested as a Gal4-BD or Gal4-AD fusion, as in vitro translated 35S-labelled protein and as an EGFP fusion
T7 sequence: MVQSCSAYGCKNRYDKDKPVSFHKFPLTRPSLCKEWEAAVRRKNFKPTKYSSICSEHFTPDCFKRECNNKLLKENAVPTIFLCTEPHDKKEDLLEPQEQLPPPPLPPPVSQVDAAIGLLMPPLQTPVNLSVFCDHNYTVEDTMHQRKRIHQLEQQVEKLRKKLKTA
Description: as §1

[7] = biological target: T8, THAP1-C3 deletion mutant (amino acids 143-213) (human, UniProt Q9NVV9 143-213); assay: as above
T8 construct: Tested as a Gal4-BD or Gal4-AD fusion, as in vitro translated 35S-labelled protein and as an EGFP fusion
T8 sequence: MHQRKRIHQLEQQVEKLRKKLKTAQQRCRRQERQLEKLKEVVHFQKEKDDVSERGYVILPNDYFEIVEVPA
Description: as §1

human THAP1 (THanatos …) = biological target: T9, human THAP1 (THanatos (death)-Associated Protein-1), full length (human, UniProt Q9NVV9 1-213); assay: yeast two-hybrid, both orientations (His/Ade selection)
T9 construct: also called hTHAP1; FLJ10477
T9 sequence: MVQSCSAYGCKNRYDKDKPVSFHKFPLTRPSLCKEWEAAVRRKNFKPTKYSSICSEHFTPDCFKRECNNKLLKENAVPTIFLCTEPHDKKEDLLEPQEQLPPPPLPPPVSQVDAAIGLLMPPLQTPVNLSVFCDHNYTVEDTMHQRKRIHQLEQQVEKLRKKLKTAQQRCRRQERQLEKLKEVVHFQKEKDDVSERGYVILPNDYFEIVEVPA
From the text: We then examined whether the leucine zipper/death domain at the C-terminus of Par4, previously shown to be involved in Par4 binding to WT-1 and aPKC, was required for the interaction between THAP1 and Par4. Two Par4 mutants were constructed for that purpose, Par4A and Par4DD. Par4A lacks the leucine zipper/death domain while Par4DD contains this domain. pGBKT7-Par4A(amino acids 1-276) and pGADT7-Par4A. were constructed by sub-cloning a EcoRI-BglII fragment from pGADT7-Par4 into the EcoRI and BamHI sites of pGBKT7 and pGADT7. Par4DD (amino acids 250-342) was amplified by PCR, using pGBKT7-Par4 as template, with primers Par4.4 (5′-[…]-3′) (SEQ ID NO: 193) and Par4.5, and cloned into the EcoRI and BamHI sites of pGBKT7 and pGADT7 to obtain pGBKT7-Par4DD and pGADT7-Par4DD. Two-hybrid interaction between THAP1 and Par4 mutants was tested by cotransformation of AH109 with pGBKT7-THAP1 and pGADT7-Par4A or pGADT7-Par4DD and selection of transformants by His and Ade double auxotrophy according to manufacturer's instructions ([…] two-hybrid system 3, Clontech). […] Similar results were obtained when two-hybrid experiments were performed in the opposite orientation using Par4 or Par4 mutants (Par4A and Par4DD) as baits instead of THAP1 (FIG. 3A).

[8] = biological target: T3, THAP1-N1 deletion mutant (amino acids …); assay: GST pull-down, immobilized GST-Par4DD, in vitro translated 35S-labelled mutant
Description: (§2) THAP1 mutants were also tested in the in vitro THAP1/Par4 interaction assay. In vitro-translated THAP1 mutants were generated with the TNT-coupled reticulocyte lysate system (Promega, Madison, Wis., USA) using pGBKT7-THAP1-C1, -C2, -C3, -N1, -N2 or -N3 vector as template. 25 μl of each ³⁵S-labelled THAP1 mutant was incubated with immobilized GST or GST-Par4 protein overnight at 4° C., in the following binding buffer: 10 mM NaPO4 pH 8.0, 140 mM NaCl, 3 mM MgCl2, 1 mM dithiothreitol (DTT), 0.05% NP40, and 0.2 mM phenylmethyl sulphonyl fluoride (PMSF), 1 mM Na Vanadate, 50 mM β Glycerophosphate, 25 μg/ml chimotrypsine, 5 μg/ml aprotinin, 10 μg/ml Leupeptin. Beads were then washed 5 times in 1 ml binding buffer. Bound proteins were eluted with 2×Laemmli SDS-PAGE sample buffer, fractionated by 10% SDS-PAGE and visualized by fluorography using Amplify (Amersham Pharmacia Biotech). As expected, THAP1-C1, -C2, -C3, -and -N3 interacted with GST/Par4DD (FIG. 4B).

[9] = biological target: T7, THAP1-N2 deletion mutant (amino acids …); assay: as above
Description: as §2

[10] = biological target: T2, THAP1ΔQRCRR mutant (deletion of …); assay: in vitro THAP1/Par4 interaction assay (GST pull-down with GST-Par4DD)
Description: as §2
for mutant THAP1ΔQRCRR. The resulting PCR fragments were digested with EcoRI and BamHI, and cloned in frame downstream of the Gal4 Binding Domain (Gal4-BD) in pGBKT7 two-hybrid vector (Clontech) to generate pGBKT7-THAP1-RR/AA and −Δ(QRCRR), or downstream of the Enhanced Green Fluorescent Protein (EGFP) ORF in pEGFP.C2 vector (Clontech) to generate pEGFP.C2-THAP1-RR/AA and −Δ(QRCRR). […]

Measured: binding result

B1: wild-type THRE probe 3 (dsDNA)
DNA 1: AGCAAGTAAGGGCAAACTACTTCAT
DNA 2: ATGAAGTAGTTTGCCCTTACTTGCT
binds: THAP1 THAP domain

B2: Par4 leucine zipper/death domain (Par4DD, amino acids 250-342) (other)
chain: GFPRYNRDANVSGTLVSSSTLEKKIEDLEKEVVTERQENLRLVRLMQDKEEMIGKLKEEIDLLNRDLDDIEDENEQLKQENKTLLKVVGQLTR
notes: also called myc-Par4DD; mycPar4DD
no binding: [1] | [2] | [6]
binds: [3] | [4] | [5] | [7] | human THAP1 (THanatos …)

B3: GST-Par4DD fusion protein (pGEX-2T-Par4DD, Par4 amino acids 250-342) (other)
chain: GFPRYNRDANVSGTLVSSSTLEKKIEDLEKEVVTERQENLRLVRLMQDKEEMIGKLKEEIDLLNRDLDDIEDENEQLKQENKTLLKVVGQLTR
notes: Expressed in E. coli DH5alpha and immobilized on glutathione sepharose; not shown: Glutathione S-transferase (GST) encoded by the pGEX-2T prokaryotic expression vector (Amersham Pharmacia Biotech); N-ter
no binding: [8] | [9] | [10]
